Publication PMC9458469 (The Journal of Cell Biology, 2022)

B1: Hsp-16.1 (purified) (natural protein, C. elegans, UniProt P34696 1-145, looked up)
chain: MSLYHYFRPAQRSVFGDLMRDMAQMERQFTPVCRGSPSESSEIVNNDQKFAINLNVSQFKPEDLKINLDGHTLSIQGEQELKTEHGYSKKSFSRVILLPEDVDVGAVASNLSEDGKLSIEAPKKEAIQGRSIPIQQAPVEQKTSE

Tests used:
[1] = target: Hsp-12.1 (purified) (C. elegans); experiment: SEC
SEC = target: the molecule itself; experiment: SEC

Molecule | stoichiometry N [1] | stoichiometry N (SEC)
Hsp-12.1 (purified) (natural protein) | 4 subunits | –
B1 | – | ~34 subunits
